# Experimental data as given in US20130143812A1, “ANTI-INFLAMMATORY DRUG” (SEKISUI MEDICAL CO., LTD., priority 2010, published 2013).
# B1: activin A: Human Recombinant (R&D Systems, 338AC005); in Examples 3 and 7 expressed by inhibin βA recombinant adenovirus (protein, UniProt P08476 311-426, looked up)
# Inhibin beta A chain: GLECDGKVNICCKKQFFVSFKDIGWNDWIIAPSGYHANYCEGECPSHIAGTSGSSLSFHSTVINHYRMRGHSPFANLKSCCVPTKLRPMSMLYYDDGQNIIKKDIQNMIVEECGCS
# modifications: Inhibin beta A chain homodimer
# Tests used:
# RAW264.7 cells [1] = test: Expression of M2 macrophage markers in RAW264.7 cells cultured with activin A and SB431542; format: cell-based; settings: activin A 10 or 30 ng/mL, 24 hours
# Protocol: Activin A (10 ng/mL or 30 ng/mL) and SB431542 (0.1 to 1 μM, Santa Cruz Biotechnology, Inc., sc-204265) were added to RAW264.7 cells in combination as depicted in FIG. 2. Human Recombinant (R&D Systems, 338AC005) was used for activin A. After 24 hours, RNeasy Mini Kit (250) (Qiagen, Cat. Number 74106) was used for recovering the cells to extract RNA. The RNA extracted at step (1) was used for performing a reverse transcription reaction in accordance with the protocol of High Capacity cDNA Reverse Transcription Kit with RNase Inhibitor (ABI) to perform TaqMan PCR. Arginase-1, Mrc2 (mannose receptor 2), and IL-10 were selected as M2 macrophage markers to create respective TaqMan probes.
# RAW264.7 cells [2] = test: Expression of M2 and M1 macrophage markers in RAW264.7 cells cultured with activin A or activin B (TaqMan PCR); format: cell-based; settings: 10 or 30 ng/mL added individually, 8 hours
# Protocol: Each of activin A (10 ng/mL or 30 ng/mL) and activin B (10 ng/mL or 30 ng/mL) was individually added to RAW264.7 cells. Human Recombinant (R&D Systems, 338AC005) and Recombinant (R&D Systems, 659AB005) were used for activin A and activin B, respectively. After eight hours, RNeasy Mini Kit (250) (Qiagen, Cat. Number 74106) was used for recovering the cells to extract RNA.
# The RNA extracted at step (1) was used for performing a reverse transcription reaction in accordance with the protocol of High Capacity cDNA Reverse Transcription Kit with RNase Inhibitor (ABI) to perform TagMan PCR. Arginase-1 was selected as an M2 macrophage marker and IL-6 and MCP-1 were selected as M1 macrophage markers to create respective TaqMan probes. Each of mRNA expression levels is represented by a multiple when an expression level of cyclophilin A mRNA in the same sample is defined as one (hereinafter, the same applies to the examples using TaqMan PCR unless otherwise stated).
# [3] = tested on: high-fat diet-fed B6 mice; test: Arginase-1 mRNA expression in visceral fat of high-fat diet-fed B6 mice given recombinant adenovirus; format: in vivo; settings: twelve-week high-fat diet B6 mice, activin expressed by recombinant adenovirus via tail vein once a week for two weeks
# Description: (§1) Full-length mouse inhibin βA cDNA or full-length mouse inhibin βB cDNA was amplified by using pcDNA3.1/V5-HisA (Invitrogen) in accordance with the recommended method. The amplified product was subjected to HindIII and EcoRV treatments and used for production of recombinant adenovirus. The recombinant adenovirus of inhibin βA or inhibin βB was produced by using Takara Adenovirus Expression Vector Kit (Takara) in accordance with the recommended method. For negative control, β-galactosidase-gene-containing virus attached to the kit was used. The adenovirus was transfected to HEK293 cells by using CellPhect (registered trademark) Transfection Kit (GE Healthcare) with the calcium phosphate method.
# After five-week-old male B6 mice were adapted with normal diet for one week, high-fat diet was fed for twelve weeks. The recombinant adenovirus (5.0×10^11 pfu/mL) was lysed in 150 μL of PBS and administered to mice in the 18th week from the tail vein once a week for two weeks. Visceral fat was collected on seventh day after the second administration for performing reverse transcription in accordance with the protocol of High Capacity cDNA Reverse Transcription Kit with RNase Inhibitor (ABI) and the expression analysis of arginase-1 was performed with TaqMan PCR.
# db/db mice = test: Arginase-1 mRNA expression in visceral fat of db/db mice given recombinant adenovirus; format: in vivo; settings: activin expressed by recombinant adenovirus via tail vein once a week for two weeks, compared to control
# Description: as §1
# After seven-week-old male db/db mice were adapted for one week, 5.0×10^11 pfu/mL of the recombinant adenovirus was lysed in 150 μL of PBS and administered from the tail vein once a week for two weeks. Visceral fat was collected on seventh day after the second administration for performing a reverse transcription reaction in accordance with the protocol of High Capacity cDNA Reverse Transcription Kit with RNase Inhibitor (ABI) and the expression analysis of arginase-1 was performed with TaqMan PCR.
# RAW264.7 cells [4] = test: Arginase-1 expression in RAW264.7 cells with activin A, Fstl3, anti-Fstl3 antibody or mouse IgG and palmitic acid; format: cell-based; settings: activin A 10 ng/mL, under induction of inflammation by palmitic acid 200 μM
# Protocol: Fstl3 (30 ng/mL), an anti-Fstl3 antibody or mouse IgG (0.3 to 10 μg/mL), and activin A (10 ng/mL) were added to RAW264.7 cells in combination as depicted in FIG. 6. Human Recombinant (R&D Systems, 338AC005), Recombinant (R&D Systems, 659AB005), and Follistatin-like 3 Recombinant (R&D Systems, 1255F3025) were used for activin A, activin B, and Fstl3, respectively. After 30 minutes, palmitic acid (a proinflammatory substance) was added to the final concentration of 200 μM and, after eight hours, RNeasy Mini Kit (250) (Qiagen, Cat. Number 74106) was used for recovering the cells to extract RNA.
# The RNA extracted at step (1) was used for performing a reverse transcription reaction in accordance with the protocol of High Capacity cDNA Reverse Transcription Kit with RNase Inhibitor (ABI) to perform TaqMan PCR. Arginase-1 was selected as an M2 macrophage marker to create TaqMan probes.
# RAW264.7 cells [5] = test: Macrophage marker expression in RAW264.7 cells with activin A, activin B or SB431542 and palmitic acid; format: cell-based; settings: 8 hours
# Protocol: (1) Induction of Macrophages by Activin Species Activin A (10 ng/mL), activin B (10 ng/mL), and SB431542 (0.1 to 1 μM) were added to RAW264.7 cells in combination as depicted in FIG. 4. Human Recombinant (R&D Systems, 338AC005) and Recombinant (R&D Systems, 659AB005) were used for activin A and activin B, respectively. After 30 minutes, palmitic acid (a proinflammatory substance) was added to the final concentration of 200 μM and, after eight hours, RNeasy Mini Kit (250) (Qiagen, Cat. Number 74106) was used for recovering the cells to extract RNA. The RNA extracted at step (1) was used for performing a reverse transcription reaction in accordance with the protocol of High Capacity cDNA Reverse Transcription Kit with RNase Inhibitor (ABI) to perform TaqMan PCR. Arginase-1 was selected as an M2 macrophage marker and IL-6 and MCP-1 were selected as M1 macrophage markers to create respective TaqMan probes. Analysis was performed in the same way as the expression analysis of macrophage markers of Example 1.
# [6] = tested on: high-fat diet-fed B6 mice; test: Glucose tolerance test (GTT) in high-fat diet-fed B6 mice given recombinant adenovirus; format: in vivo; settings: activin expressed by recombinant adenovirus, glucose 1.0 mg/g-BW into abdominal cavity
# Protocol: Adenovirus was produced in the same way as the production of recombinant adenovirus in Example 3.
# After five-week-old male B6 mice were adapted with normal diet for one week, high-fat diet was fed for twelve weeks. The recombinant adenovirus (5.0×10^11 pfu/mL) was lysed in 150 μL of PBS and administered to mice in the 18th week from the tail vein once a week for two weeks. A glucose tolerance test (GTT) was performed on seventh day after the second administration.
# The GTT was performed as follows. Into the abdominal cavities of mice fasted for 16 hours from the previous day of the test, 1.0 mg/g-BW of glucose (diluted by physiological saline) was administered. Serum was separated from collected whole blood and glucose concentration was measured by Glucose-Test Wako (manufactured by Wako Pure Chemical Industries).
# [7] = activin 10 ng/mL, palmitic acid 200 μM
molecule,measurement,setting,value
B1,expression of IL-10,RAW264.7 cells [1],remarkably increased
same,expression of Mrc2,RAW264.7 cells [1],remarkably increased
same,expression of arginase-1,RAW264.7 cells [1],remarkably increased
same,expression level of IL-6 (M1 macrophage marker),RAW264.7 cells [2],not changed
same,expression level of MCP-1 (M1 macrophage marker),RAW264.7 cells [2],not changed
same,expression of arginase-1 (M2 macrophage marker),RAW264.7 cells [2]; mRNA relative to cyclophilin A,remarkably increased
same,expression level of arginase-1 in visceral fat,[3],slightly increased
same,expression of arginase-1 in visceral fat,db/db mice,no difference from the control
same,expression level of arginase-1,RAW264.7 cells [4],increased
same,expression level of arginase-1,"RAW264.7 cells [5]; activin 10 ng/mL present, palmitic acid 200 μM added, compared to control",remarkably increased
same,"expression level of MCP-1, effect of activin addition",RAW264.7 cells [5]; [7],not changed
same,"expression of IL-6, effect of activin addition",RAW264.7 cells [5]; [7],slightly reduced
same,glucose metabolism in glucose tolerance test (GTT),[6],improved glucose metabolism
